Molecular target: T1, FLRT3^LRR (leucine-rich repeat domain of mouse FLRT3) (mouse, UniProt Q8BGT1 29-359)
T1 sequence: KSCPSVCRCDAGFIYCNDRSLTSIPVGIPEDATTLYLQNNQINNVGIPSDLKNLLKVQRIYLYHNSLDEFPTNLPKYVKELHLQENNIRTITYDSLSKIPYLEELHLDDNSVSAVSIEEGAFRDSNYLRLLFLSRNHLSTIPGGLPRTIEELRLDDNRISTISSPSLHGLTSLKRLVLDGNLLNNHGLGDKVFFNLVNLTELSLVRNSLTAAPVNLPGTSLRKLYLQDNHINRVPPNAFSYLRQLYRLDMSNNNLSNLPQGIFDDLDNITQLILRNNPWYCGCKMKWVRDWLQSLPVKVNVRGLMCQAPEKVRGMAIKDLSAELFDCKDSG
Test: SPR

B1: Unc5A^ecto (human Unc5A ectodomain) (domain or fragment)
chain: not shown
B1: binds.

— paper PMC4210639 (Neuron, 2014)
